These results are taken from US20250326848A1 (SHANGHAI HENLIUS BIOTECH, published 2025).

The term EC50 (read off the curve) denotes the midpoint of the concentration-response curve.

The target of assay [1] is T1, human CD47 on primary human platelets (human, UniProt Q08722 19-323).
T1 construct: whole, on cells
Kind of assay: FACS, binding to primary human platelets, donor 2.

The target of assay [2] is T1, human CD47 on primary human platelets. Kind of assay: FACS, binding to primary human platelets, donor1.

B1: M1 #21, anti-CD47 antibody (WO2022063316A1) (antibody, V domains shown)
VH: QVQLQQWGAGLLKPSETLSLTCAVYGGSFSGYYWSWIRQPPGKGLEWIGEINQSGSTNYNPSLKSRVTISVDTSKNQFSLRLSSVTAADTAMYYCARFTGRPYYGMDVWGQGTTVTVSS
VL: SYELTQPPSVSATPGQRVTISCSGSESNIGSHKVKWYQQFAGAAPRLLIHGNDQRFSGVPDRFSGSKSGTSASLAISGLQSEDEADYYCAAWDDSLYGRVFGGGTKLTVL
Consider B1, for which the entries for the 50% effective concentration (EC50 (read off the curve)) in assay [1] and in assay [2] were about 0.3 nM and about 0.7 nM, respectively.
